From the supplement of paper PMC9233669
This sample holds only a part of the variants without activity.

Columns and labels:
[1] = test system: biotinyl-Ile-oxazolone; experiment: self-aminoacylation, catalytic enhancement (BIO) (fold over background); higher = more active; k-Seq, kA / k0A0; sequences stand for … in GGGAAUGGAUCCACAUCUACGAAUUC…UUCACUGCAGACUUGACGAAGCUG
Outline: (§1)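 The uncatalyzed rate is the low-activity peak of a bimodal Gaussian fit, and catalytic enhancement is median kA divided by it. The kA values came from pseudo-first-order fits, with 1000 bootstraps, of per-sequence fraction reacted measured by streptavidin capture, triplicate qPCR and Illumina sequencing. Mutagenized RNA pools with a 21-nt variable region (0.43 μM) were reacted with each biotinyl-aminoacyl-oxazolone at 2–1250 μM in 50 μL HEPES/NaCl/KCl/MgCl2/CaCl2 buffer with 5% acetonitrile, pH 6.9–7.0, for 90 minutes at room temperature.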

[2] = test system: biotinyl-Met-oxazolone; experiment: self-aminoacylation, catalytic enhancement (BMO) (fold over background); higher = more active; k-Seq, kA / k0A0; sequences stand for … in GGGAAUGGAUCCACAUCUACGAAUUC…UUCACUGCAGACUUGACGAAGCUG
Outline: as §1

[3] = test system: biotinyl-Leu-oxazolone; experiment: self-aminoacylation, catalytic enhancement (BLO) (fold over background); higher = more active; k-Seq, kA / k0A0; sequences stand for … in GGGAAUGGAUCCACAUCUACGAAUUC…UUCACUGCAGACUUGACGAAGCUG
Outline: as §1

[4] = test system: biotinyl-Phe-oxazolone; experiment: self-aminoacylation, catalytic enhancement (BFO) (fold over background); higher = more active; k-Seq, kA / k0A0; sequences stand for … in GGGAAUGGAUCCACAUCUACGAAUUC…UUCACUGCAGACUUGACGAAGCUG
Outline: as §1

[5] = test system: biotinyl-Trp-oxazolone; experiment: self-aminoacylation, catalytic enhancement (BWO) (fold over background); higher = more active; k-Seq, kA / k0A0; sequences stand for … in GGGAAUGGAUCCACAUCUACGAAUUC…UUCACUGCAGACUUGACGAAGCUG
Outline: as §1

[6] = test system: biotinyl-Val-oxazolone; experiment: self-aminoacylation, catalytic enhancement (BVO) (fold over background); higher = more active; k-Seq, kA / k0A0; sequences stand for … in GGGAAUGGAUCCACAUCUACGAAUUC…UUCACUGCAGACUUGACGAAGCUG
Outline: as §1

Sequence | self-aminoacylation [1] | self-aminoacylation [2] | self-aminoacylation [3] | self-aminoacylation [4] | self-aminoacylation [5] | self-aminoacylation [6]
AUUCACCAAGGUCAGCGGGUG [Fam2.2 aminoacylation ribozyme variant] | 4.01 | 4.83 | 5.4 | 29.3 | 4.65 | 3.95
AUUCACCAAGGUCAUCGGAUG [Fam2.2 aminoacylation ribozyme variant] | 1.09 | 0.703 | 0.794 | 1.12 | 0.726 | 1.17
AUUCACCAAGGUCAUCGGGAG [Fam2.2 aminoacylation ribozyme variant] | 1.36 | 1.19 | 1.57 | 4.38 | 1.27 | 1.11
AUUCACCAAGGUCAUCGGGUG [Fam2.2 aminoacylation ribozyme variant] | 5.52 | 9.68 | 12.3 | 75.8 | 8.61 | 5.71
AUUCACCAAGGUGAUCGGGUG [Fam2.2 aminoacylation ribozyme variant] | 2.63 | 3.28 | 4.13 | 17.6 | 4.15 | 2.98
AUUCACCAAGUUCAUCGGGUG [Fam2.2 aminoacylation ribozyme variant] | 3.06 | 3.58 | 4.31 | 19.8 | 4.14 | 2.89
AUUCACCAGGGUCAUCGGGUG [Fam2.2 aminoacylation ribozyme variant] | 4.8 | 7.51 | 9.42 | 57.5 | 6.99 | 5.45
AUUCACCCACGUCAUCGGGUG [Fam2.2 aminoacylation ribozyme variant] | 2.76 | 3.91 | 6.88 | 37.1 | 3.99 | 3.23
AUUCACCCAGGUCAUCCGGUG [Fam2.2 aminoacylation ribozyme variant] | 6.38 | 8.64 | 12.7 | 90.7 | 8.51 | 6.29
AUUCACCCAGGUCAUCGCGUG [Fam2.2 aminoacylation ribozyme variant] | 8.24 | 16 | 19.4 | 123 | 13 | 8.43
AUUCACCCAGGUCAUCGGGUG [Fam2.2 aminoacylation ribozyme variant] | 3.26 | 4.83 | 5.86 | 34.2 | 4.53 | 3.53
AUUCACCCAGGUCAUCGUGUG [Fam2.2 aminoacylation ribozyme variant] | 0.798 | 1.04 | 1.29 | 3.46 | 1.1 | 1.04
AUUCACCCAGGUUAUCGGGUG [Fam2.2 aminoacylation ribozyme variant] | 2.77 | 4.79 | 4.62 | 35.3 | 4.83 | 3.33
AUUCACCCUGGUCAUCGGGUG [Fam2.2 aminoacylation ribozyme variant] | 5.16 | 10.6 | 11.5 | 71 | 10.6 | 5.5
AUUCACCGACGUCAUCGGGUG [Fam2.2 aminoacylation ribozyme variant] | 5.71 | 10.2 | 12.9 | 55.1 | 9.46 | 6.24
AUUCACCGAGAUCAUCGGGUG [Fam2.2 aminoacylation ribozyme variant] | 3.88 | 6.77 | 8.53 | 49.8 | 7.09 | 4.27
AUUCACCGAGGGCAUCGGGUG [Fam2.2 aminoacylation ribozyme variant] | 4.62 | 5.18 | 8.06 | 30.9 | 7.83 | 5.15
AUUCACCGAUGUCAUCGGGUG [Fam2.2 aminoacylation ribozyme variant] | 5.59 | 8.67 | 10.8 | 62.7 | 7.35 | 4.63
AUUCACCGGGGUCAUCGGGUG [Fam2.2 aminoacylation ribozyme variant] | 6.47 | 8.15 | 10.7 | 80.5 | 9.14 | 7.4
AUUCACCGUGGUCAUCGGGUG [Fam2.2 aminoacylation ribozyme variant] | 5.23 | 9.04 | 9.19 | 59.5 | 8.84 | 6.1
AUUCACCUAAGUCAUCGGUUG [Fam2.2 aminoacylation ribozyme variant] | 1.06 | 1.14 | 1.23 | 0.716 | 0.969 | 1.24
AUUCACCUAAGUCGUCGGGUG [Fam2.2 aminoacylation ribozyme variant] | 1.88 | 2.18 | 2.55 | 10.1 | 2.02 | 1.87
AUUCACCUACCUCAUCGGGUG [Fam2.2 aminoacylation ribozyme variant] | 2.21 | 2.69 | 4.3 | 22.3 | 2.79 | 2.33
AUUCACCUACGACAUCGGGUG [Fam2.2 aminoacylation ribozyme variant] | 2.48 | 3.87 | 5.12 | 24 | 3.95 | 2.28
AUUCACCUACGGCAUCGGGUG [Fam2.2 aminoacylation ribozyme variant] | 2.29 | 2.91 | 3.86 | 22.2 | 3.22 | 2.7
AUUCACCUACGUCAGCGGGUG [Fam2.2 aminoacylation ribozyme variant] | 2.95 | 4.72 | 6.17 | 31.4 | 4.14 | 2.71

Sequence | self-aminoacylation [1] | self-aminoacylation [2] | self-aminoacylation [3] | self-aminoacylation [4] | self-aminoacylation [5] | self-aminoacylation [6]
AUUCACCUACGUCAUCCGGUG [Fam2.2 aminoacylation ribozyme variant] | 4.29 | 5.94 | 8.48 | 46.7 | 7.01 | 3.84
AUUCACCUACGUCAUUGGGUG [Fam2.2 aminoacylation ribozyme variant] | 1.5 | 1.97 | 2.47 | 10.9 | 1.51 | 1.51
AUUCACCUAGAGCAUCGGGUG [Fam2.2 aminoacylation ribozyme variant] | 1.76 | 2.34 | 2.43 | 12.4 | 1.64 | 2.06
AUUCACCUAGAUCAACGGGUG [Fam2.2 aminoacylation ribozyme variant] | 2.73 | 4.52 | 5.41 | 25.3 | 4.38 | 2.49
AUUCACCUAGAUCAUCCGGUG [Fam2.2 aminoacylation ribozyme variant] | 3.4 | 3.41 | 3.97 | 17.8 | 2.83 | 3.32
AUUCACCUAGCACAUCGGGUG [Fam2.2 aminoacylation ribozyme variant] | 2.09 | 2.38 | 3.31 | 11.3 | 2.03 | 2.12
AUUCACCUAGCUCACCGGGUG [Fam2.2 aminoacylation ribozyme variant] | 2.15 | 3.66 | 2.64 | 16.7 | 2.11 | 2.52
AUUCACCUAGCUCAUCGGGCG [Fam2.2 aminoacylation ribozyme variant] | 2.26 | 2.3 | 2.33 | 11.7 | 1.8 | 2.57
AUUCACCUAGCUCAUGGGGUG [Fam2.2 aminoacylation ribozyme variant] | 2.97 | 5.15 | 5.64 | 32.8 | 4.56 | 2.8
AUUCACCUAGGACAUAGGGUG [Fam2.2 aminoacylation ribozyme variant] | 2.06 | 3.54 | 4.7 | 18.6 | 3.23 | 2.01
AUUCACCUAGGACAUCGAGUG [Fam2.2 aminoacylation ribozyme variant] | 1.02 | 1.52 | 1.81 | 2.04 | 1.89 | 1.12
AUUCACCUAGGACAUCGGGAG [Fam2.2 aminoacylation ribozyme variant] | 1.02 | 1.08 | 1.03 | 0.29 | 0.92 | 0.991
AUUCACCUAGGACAUCGGGUC [Fam2.2 aminoacylation ribozyme variant] | 1.22 | 0.87 | 1.42 | 0.549 | 0.858 | 1.25
AUUCACCUAGGACUUCGGGUG [Fam2.2 aminoacylation ribozyme variant] | 2.5 | 2.75 | 3.6 | 19.1 | 3.48 | 2.43
AUUCACCUAGGAUAUCGGGUG [Fam2.2 aminoacylation ribozyme variant] | 3.31 | 6.65 | 7.35 | 44.1 | 5.47 | 3.64
AUUCACCUAGGCAAUCGGGUG [Fam2.2 aminoacylation ribozyme variant] | 2.52 | 3.95 | 4.75 | 35.4 | 3.92 | 2.98
AUUCACCUAGGCCAUCGGGUU [Fam2.2 aminoacylation ribozyme variant] | 1.34 | 1.52 | 1.03 | 5.49 | 0.76 | 1.31
AUUCACCUAGGCCGUCGGGUG [Fam2.2 aminoacylation ribozyme variant] | 1.87 | 1.94 | 2.74 | 17.1 | 2.11 | 2.3
AUUCACCUAGGGCAACGGGUG [Fam2.2 aminoacylation ribozyme variant] | 2.59 | 2.81 | 4.08 | 22.8 | 2.92 | 2.5
AUUCACCUAGGGCAUCAGGUG [Fam2.2 aminoacylation ribozyme variant] | 1.35 | 1.6 | 1.7 | 1.46 | 1.55 | 1.46
AUUCACCUAGGGCAUCGCGUG [Fam2.2 aminoacylation ribozyme variant] | 3.12 | 3.5 | 2.92 | 26.7 | 2.95 | 3.89
AUUCACCUAGGGCAUCGGGUG [Fam2.2 aminoacylation ribozyme variant] | 2.78 | 3.55 | 4.05 | 20.3 | 3.4 | 3
AUUCACCUAGGGCAUCUGGUG [Fam2.2 aminoacylation ribozyme variant] | 2.11 | 2.63 | 3.23 | 13 | 2.64 | 2.33
AUUCACCUAGGGCAUUGGGUG [Fam2.2 aminoacylation ribozyme variant] | 3.74 | 6.54 | 8.05 | 42.8 | 6.12 | 3.49
AUUCACCUAGGUAAGCGGGUG [Fam2.2 aminoacylation ribozyme variant] | 1.9 | 2.73 | 2.75 | 14.3 | 2.31 | 1.48
